Assay results: patent US8455615B2, “Methods and compositions for prostate cancer immunotherapy” (Beth Israel Deaconess Medical Center, priority 2008, dated 2013)

Experiments:
transgenic HHD mice = test: Immunization of HHD mice with SIM2 peptides, IFN-γ ELISPOT on splenocytes; assay type: in vivo, mouse; conditions: male HHD mice, s.c. peptide in IFA with HBVcore128-140 helper epitope, 10-12 days; P<0.01 for SIM2(87), P<0.001 for other epitopes
Protocol: These nine SIM2 peptides were then tested for their capacity to elicit in vivo CTL responses in transgenic HHD mice. Ten to 12-week old male HHD mice were injected subcutaneously at the basis of the tail with […] of each candidate peptide emulsified in 50 μl of Incomplete Freund's Adjuvant (IFA) and 50 μl PBS in the presence of 150 μg of the I-A^b restricted HBVcore128-140 T helper epitope ([…]; SEQ ID NO: 88). Ten to twelve days post-immunization, spleens were harvested and splenocytes tested for peptide-induced specific release of IFN-γ by ELISPOT. To perform the ELISPOT assays, 96-well Millipore IP plates were coated with 100 μl/well mouse IFN-γ specific capture mAb (AN18, Mabtech Inc., Mariemont, Ohio) at a concentration of 10 μg/ml in PBS overnight at 4° C. Wells were washed with PBS and saturated with RPMI/10% FCS for 1 hour at 37° C. A total of 2.5×10^5 splenocytes were seeded in each well in four replicates and 5×10^4 peptide-loaded (10 μg peptide/ml, for 2 hours at 37° C.) splenocytes pretreated with 50 μg/ml Mitomycin C for 1 hour were added to each well. Plates were incubated for 1-2 days at 37° C. in 5% CO2, washed 5 times with PBS, and then incubated with 1 μg/ml of biotinylated rat anti-mouse IFN-γ mAb (R4-6A2, Mabtech Inc.) for 24 hours at 4° C. or at room temperature for 2 hours. The wells were washed, and incubated with 100 μl of diluted alkaline phosphatase-conjugated streptavidin for 1 hour at room temperature. Spots were developed by adding […] substrates (5-bromo-4,3-indolyl phosphate and nitroblue tetrazolium) and counted using the ELRO4 AID ELISPOT Reader System (Autoimmun Diagnostika GmbH, Straf3berg, Germany).

HLA-A2.1 [1] = target: T1, HLA-A2.1 (Homo sapiens, UniProt P04439, D140Y/D185E/D98H/E176V/E277Q/G131W/G231S/I119V/I121R/I166T/I218V/L300P/L318F/N151K/N90K/P208A/P217A/Q86G/Q94H/R138H/R169H/T345S); test: Peptide-HLA-A2.1 dissociation rate on T2 cells with Brefeldin A (SIM2 peptides); assay type: cell-based; conditions: 50 μg/ml peptide, loss of A2.1 expression over time
T1 construct: stabilize MHC class I molecules from the T2 cell line; endogenous in cells; host or cells: T2 cells
Protocol: T2 cells were incubated overnight with 50 μg/ml of each candidate peptide at 37° C. in serum-free Iscove's Modified Dulbecco's Medium (IMDM). Cells were then incubated with Brefeldin A (Sigma, St. Louis, Mo.) at 10 μg/ml for 1 hour, washed, and incubated at 37° C. for 0, 2, 4 or 6 hours in the presence of Brefeldin A (50 ng/ml). Cells were then stained with BB7.2 mAb. For each time point, peptide-induced HLA-A2.1 expression was calculated as the difference of the mean fluorescence of peptide-loaded T2 cells and mean fluorescence of negative peptide-loaded T2 cells. The rate of dissociation is reflected by the loss of A2.1 expression over time.

HLA-A2.1 [2] = target: T1, HLA-A2.1; test: MHC stabilization assay on T2 cells (SIM2 peptides); assay type: cell-based; conditions: 50 μg peptide/250×10^3 cells/ml overnight at 37° C., BB7.2 mAb, flow cytometry
Protocol: Epitope candidates were evaluated for binding to HLA-A2.1 using an MHC stabilization assay. The assay is based on the ability of suitable peptides to stabilize MHC class I molecules from the T2 cell line. T2 cells lack a functional transporter associated with antigen presentation (TAP) and as a result accumulate empty, unstable class I molecules on the cell surface. These molecules on the cell surface dissociate rapidly unless they are stabilized by the addition of an appropriate binding peptide. In this assay, the flu M1 HLA-A*0201-binding peptide was used as a reference.
Briefly, T2 cells were cultured for 6 hours in serum-free IMDM (ATCC) prior to the addition of candidate peptides at a concentration of 50 μg/250×10^3 cells/ml and incubated overnight at 37° C. Cells were washed, and surface HLA-A2.1 molecules were stained with FITC mouse anti-human HLA-A2 mAb (clone BB7.2, Mouse IgG2b κ, BD Pharmingen) for 1 hour at 4° C. Cells were then washed three times with PBS and analyzed by flow cytometry. A negative control peptide (NEG, see FIG. 6A) and the flu matrix peptide M1 binder peptide (M1, see FIG. 6A) served as controls. The relative binding affinity of a given peptide was calculated as MFI(peptide)/MFI(negative peptide). Only relative binding affinities of 1.5 or higher were considered for further testing.

| Substance | peptide-specific IFN-γ release by splenocytes (ELISPOT), immunogenicity (transgenic HHD mice) | peptide-HLA dissociation rate (weak or strong stabilizing epitope) (HLA-A2.1 [1]) | binding to / stabilization of HLA-A2.1 molecules (HLA-A2.1 [2]) |
| --- | --- | --- | --- |
| FLDSRVTEV (listed as Homo sapiens) [SIM2(244)] | higher numbers of splenocytes to release IFN-γ | strong stabilizing | – |
| KLIFLDSRV (listed as Homo sapiens) [SIM2(241)] | higher numbers of splenocytes to release IFN-γ | strong stabilizing | – |
| SIM2(25): SIM2 peptide that binds tightly to A2.1 but was not immunogenic; sequence not printed (KLLPLPSAI) | not immunogenic | – | bind tightly |
| SIM2(199): SIM2 peptide able to stabilize HLA-A2.1 molecules, not immunogenic; sequence not printed (SLYDSCYQI) | not immunogenic | weak stabilizing | bind tightly |
| SLDLKLIFL (listed as Homo sapiens) [SIM2(237)] | higher numbers of splenocytes to release IFN-γ | weak stabilizing | – |
| TLDGFVFVV (listed as Homo sapiens) [SIM2(87)] | higher numbers of splenocytes to release IFN-γ | strong stabilizing | – |
| YQIVGLVAV (listed as Homo sapiens) [SIM2(205)] | higher numbers of splenocytes to release IFN-γ | strong stabilizing | – |
| epitope 84: SIM2 peptide able to stabilize HLA-A2.1 molecules, weak stabilizing epitope; sequence not printed (LLQTLDGFV) | – | weak stabilizing | – |
| epitope 430: SIM2 peptide able to stabilize HLA-A2.1 molecules, weak stabilizing epitope; sequence not printed (LLYTPSYSL) | – | weak stabilizing | – |
